Reference: publication PMC8189181

Biological target: Fzd1-mApple
Test: quasi-PIE fluorescence cross-correlation spectroscopy (FCCS); live zebrafish embryos co-expressing the EGFP- and mApple-tagged proteins; dorsal cerebellum and midbrain hindbrain boundary; room temperature; FLCS-based statistical filtering of spectral cross talk; apparent Kd

Substance: Wnt3C80A-EGFP (ligand)
- Kd: 313 nM
